These results are taken from paper PMC2113082 (The Journal of Cell Biology, 1984).

The assay addresses von Willebrand factor (human, UniProt P04275 764-2813). The assay can be described thus: ELISA. In general terms: In an ELISA, binding on a coated surface is turned into a signal by an enzyme label.

von Willebrand factor, sequence (P04275 764-2813): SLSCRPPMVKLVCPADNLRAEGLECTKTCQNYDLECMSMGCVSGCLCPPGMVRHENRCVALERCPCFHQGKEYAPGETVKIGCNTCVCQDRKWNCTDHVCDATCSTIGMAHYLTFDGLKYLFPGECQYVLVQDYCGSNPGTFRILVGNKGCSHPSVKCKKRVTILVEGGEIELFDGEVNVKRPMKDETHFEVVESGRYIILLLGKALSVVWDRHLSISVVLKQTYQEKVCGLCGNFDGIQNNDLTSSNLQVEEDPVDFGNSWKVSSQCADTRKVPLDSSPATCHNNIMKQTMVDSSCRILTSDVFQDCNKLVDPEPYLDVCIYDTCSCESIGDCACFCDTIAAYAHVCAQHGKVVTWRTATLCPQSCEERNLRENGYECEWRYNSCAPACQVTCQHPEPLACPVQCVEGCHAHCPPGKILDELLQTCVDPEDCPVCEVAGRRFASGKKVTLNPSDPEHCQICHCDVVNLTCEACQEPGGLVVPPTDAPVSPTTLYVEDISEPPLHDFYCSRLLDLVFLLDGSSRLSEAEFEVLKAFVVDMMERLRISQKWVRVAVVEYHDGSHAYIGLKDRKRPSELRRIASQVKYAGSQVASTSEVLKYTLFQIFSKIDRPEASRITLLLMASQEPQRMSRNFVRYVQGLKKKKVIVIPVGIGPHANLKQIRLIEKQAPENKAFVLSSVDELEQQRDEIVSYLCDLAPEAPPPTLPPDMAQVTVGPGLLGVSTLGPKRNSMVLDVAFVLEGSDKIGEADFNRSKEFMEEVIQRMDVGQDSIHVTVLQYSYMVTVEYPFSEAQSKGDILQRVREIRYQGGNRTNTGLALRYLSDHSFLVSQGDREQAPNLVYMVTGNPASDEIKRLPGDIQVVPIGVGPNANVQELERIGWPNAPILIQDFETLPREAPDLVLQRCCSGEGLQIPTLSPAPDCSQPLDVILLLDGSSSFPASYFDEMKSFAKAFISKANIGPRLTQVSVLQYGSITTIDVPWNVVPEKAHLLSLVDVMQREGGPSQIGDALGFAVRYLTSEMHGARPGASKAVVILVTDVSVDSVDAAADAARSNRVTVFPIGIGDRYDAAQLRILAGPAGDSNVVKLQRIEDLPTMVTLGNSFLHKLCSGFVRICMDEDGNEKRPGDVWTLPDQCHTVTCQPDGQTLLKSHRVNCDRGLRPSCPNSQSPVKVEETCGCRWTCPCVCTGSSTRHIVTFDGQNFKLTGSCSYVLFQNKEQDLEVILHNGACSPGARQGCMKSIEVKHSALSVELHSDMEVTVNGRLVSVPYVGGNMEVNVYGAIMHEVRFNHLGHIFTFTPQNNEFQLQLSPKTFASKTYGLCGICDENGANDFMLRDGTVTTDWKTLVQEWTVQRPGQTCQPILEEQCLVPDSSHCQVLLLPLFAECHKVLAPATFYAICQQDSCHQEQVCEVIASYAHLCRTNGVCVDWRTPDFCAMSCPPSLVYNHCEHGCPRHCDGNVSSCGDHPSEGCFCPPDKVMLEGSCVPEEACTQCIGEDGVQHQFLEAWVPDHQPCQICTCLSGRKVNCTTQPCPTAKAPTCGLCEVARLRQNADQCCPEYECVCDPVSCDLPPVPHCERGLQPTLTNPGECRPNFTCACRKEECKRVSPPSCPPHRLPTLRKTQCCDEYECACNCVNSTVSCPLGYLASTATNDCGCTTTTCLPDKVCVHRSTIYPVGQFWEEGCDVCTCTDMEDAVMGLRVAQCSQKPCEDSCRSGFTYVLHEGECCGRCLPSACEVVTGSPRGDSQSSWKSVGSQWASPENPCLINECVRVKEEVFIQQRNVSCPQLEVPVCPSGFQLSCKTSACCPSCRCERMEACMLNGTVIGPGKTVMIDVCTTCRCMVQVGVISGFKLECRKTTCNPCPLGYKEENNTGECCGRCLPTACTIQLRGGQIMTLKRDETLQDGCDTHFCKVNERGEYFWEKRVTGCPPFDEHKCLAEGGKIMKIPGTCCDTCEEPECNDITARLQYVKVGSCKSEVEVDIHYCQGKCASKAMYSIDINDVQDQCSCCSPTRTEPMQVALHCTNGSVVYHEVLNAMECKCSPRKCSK

B1: Phosphorylase b (enzyme, rabbit, UniProt P00489 1-843, looked up)
chain: MSRPLSDQEKRKQISVRGLAGVENVTELKKNFNRHLHFTLVKDRNVATPRDYYFALAHTVRDHLVGRWIRTQQHYYEKDPKRIYYLSLEFYMGRTLQNTMVNLALENACDEATYQLGLDMEELEEIEEDAGLGNGGLGRLAACFLDSMATLGLAAYGYGIRYEFGIFNQKICGGWQMEEADDWLRYGNPWEKARPEFTLPVHFYGRVEHTSQGAKWVDTQVVLAMPYDTPVPGYRNNVVNTMRLWSAKAPNDFNLKDFNVGGYIQAVLDRNLAENISRVLYPNDNFFEGKELRLKQEYFVVAATLQDIIRRFKSSKFGCRDPVRTNFDAFPDKVAIQLNDTHPSLAIPELMRVLVDLERLDWDKAWEVTVKTCAYTNHTVLPEALERWPVHLLETLLPRHLQIIYEINQRFLNRVAAAFPGDVDRLRRMSLVEEGAVKRINMAHLCIAGSHAVNGVARIHSEILKKTIFKDFYELEPHKFQNKTNGITPRRWLVLCNPGLAEIIAERIGEEYISDLDQLRKLLSYVDDEAFIRDVAKVKQENKLKFAAYLEREYKVHINPNSLFDVQVKRIHEYKRQLLNCLHVITLYNRIKKEPNKFVVPRTVMIGGKAAPGYHMAKMIIKLITAIGDVVNHDPVVGDRLRVIFLENYRVSLAEKVIPAADLSEQISTAGTEASGTGNMKFMLNGALTIGTMDGANVEMAEEAGEENFFIFGMRVEDVDRLDQRGYNAQEYYDRIPELRQIIEQLSSGFFSPKQPDLFKDIVNMLMHHDRFKVFADYEEYVKCQERVSALYKNPREWTRMVIRNIATSGKFSSDRTIAQYAREIWGVEPSRQRLPAPDEKIP
Take B1: the binding result is “binds”.
